± gives the uncertainty stated by the source.
Test: amyloid nucleation score (Sup35N fusion, yeast selection) (log enrichment); library NNK3; higher = more nucleation; inactive = no reads after selection
Summary of the method: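 DiMSum was used to calculate nucleation scores as log enrichment of output over input reads, centred on the mode score of non-aggregating sequences. Sequences with fewer than 100 input reads were not scored. Input and output came from Illumina sequencing of plasmid inserts in psi-negative yeast expressing peptides of 20 random codons fused to Sup35N, induced 24 hours with 100 μM copper sulfate and then grown 7 days at 30°C on medium lacking adenine and uracil.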

Substance | amyloid nucleation score
EEMLRHCHKIRERWGSKSFE | inactive
FNPCRGCYETKFHVYRLSRL | 0.584 ± 0.28
QRITDKMSYADSLLRSST | inactive
LFLGLVLAHPPDRVRLSTVL | inactive
WRVSLWLGWNLFWTCSNPAD | inactive
GLVYWVQHGCWLTAIQSVLV | inactive
IVLIKSILDANEEGT | inactive
DVFSNMSWYYCNVIWNAYDM | 0.196 ± 0.52
RVSRAGMIMGPMLLFNKYFD | inactive
YRLRSICSFLGVVSYG | inactive
WAGGSDPRCNFKCLCVKGFC | inactive
MLVAGPLGQE | inactive
TTTAYWNESDTLRCMLV | -0.757 ± 1.4
SFDCRRSSRL | inactive
YYLVYPRNIIMYKGNNFLKP | 2.24 ± 0.063
SKYPRLSCHRIRNVRLGWTL | 1.34 ± 0.085
YAKFCVSASYGVCQKLHGQF | 0.331 ± 0.37
HNLVSSSSTCCRRHPCMAG | inactive
WIMWNMRAKNLKLLPARARV | inactive
QDPMLTCGGRWDFTCAGEVP | inactive
LSGVLLILSMYLDYWTNIF | inactive
WLWVGIGLRSYELLNEEW | inactive
RDPFITFWYMRIYTTGRGCV | inactive

Substance | amyloid nucleation score
SVSPEWYSSLLGSLCGAGFL | inactive
LSVGVSRCLNPLLTIGSGRE | 1.28 ± 0.096
FYICYLNPNQQLFVLN | 1.27 ± 0.1
FLRRGCLFRQT | inactive
CLSLFTSGIV | inactive
CNNNLGVVFPRFWSIFAKGC | inactive
YRRELAKSHLYMSIWRNRLP | inactive
CHGCMRLLSDGLKDEWYMIF | inactive
GIGLCVGYE | inactive
RLGEGKCTPYQWFVSNSTSN | -0.166 ± 0.66
YTERYS | -0.265 ± 0.96
HYRYGKHREKMLMSAIVWLS | inactive
KFPFSGPSRMTRRVMQRALL | inactive
VVLTMMHRHLYVSCKLRFCS | inactive
KEDKPESTDYNVNT | inactive
WYAKCCKV | inactive
DGEASTRVSCGDDIFRKTSS | 1.03 ± 0.16
NIIYYTTVGHVHSVW | 1.04 ± 0.18
CCAYFVGLGCVQLTKWFSLL | inactive
NLDIWNLRQWSGVVYLV | 0.751 ± 0.14
CSIILWALPEFNLLDFLPAD | inactive
ACGFSFF | -0.264 ± 0.98
KSDVS | inactive

Substance | amyloid nucleation score
SIFKVISERQSV | inactive
KGVGFPVCTSNG | inactive
SLRPGLVLVIERNEFKS | inactive
GRGNAGPCTSNRWDDFWEKK | inactive
STYGRMAR | inactive
QFTHTNIFTND | inactive
YFSAIFFDSLYMLYGSNRAV | 0.356 ± 0.24
AVSLTW | inactive
DSYSIILCFHKNKLLVLLSP | 0.156 ± 0.42
VWPNGSKKYGLSRMTANSLL | inactive
LKYLCYHRQCSLMPRCWMDR | inactive
LMNEKNPSQDNRFRIVRALS | inactive
CLTTVRLRNYFF | inactive
LRVCISGYSN | inactive
CTYIVHATVEPVYDNDLLKW | inactive
VEAHLLL | 0.01 ± 0.87
KFSMMYLRYFVWFLRLIMAS | inactive
SPPTGYRASNWRGLGSVDGW | inactive
LSSYTVSFPKRMHRSEYFGY | -0.73 ± 0.9
TRSFVRSGAWNSLEGW | 1.16 ± 0.16
FCVEIMSLSVRGCWGYSFGT | inactive
LDSFATRGYSWSLGIIVMKI | inactive
ACTLLCFRIAQLEFLWVRVD | inactive

Substance | amyloid nucleation score
HYPIRERNAFLLNNDVDLLA | inactive
KGVRCANNVLRKQRLENNNF | inactive
RQLMIDAQSVYKCCGQPW | inactive
YLSINHRTTSFYWYDFAGFP | 0.537 ± 0.17
LSVLFCLDGK | inactive
VLDVVGKKFMRVSWQDGMPG | 1.13 ± 0.18
VHICKWVM | inactive
VHLWGGRGHQLVWVHVRWGV | inactive
LGLILIVLLVRPVFDSKRLD | inactive
FSYEMFNAMGYFPIASLCSF | inactive
WFFDTDIFHCEFEKMYYPLV | inactive
RDNLLGLTGNTTGDFTPGTV | inactive
FFCGFRKTAASHFLFLVKDW | inactive
SHFGLDAICFIKLSTDGCTG | inactive
IFNALCYTWESRFLRTEVVS | inactive
LHVPGLIYF | inactive
GDSIRSWNRGAVEIA | -0.377 ± 1.5
HHKAEGAHVKITDLSFDVKS | inactive
ESAKFYLYSAR | inactive
KKPPHRLTVLMTGIAM | inactive
ANVCGVL | inactive
CFYAISDRRSRFSIIFTYNG | inactive
CGISSILIAFCCNHYIVQWM | 1.92 ± 0.054

Substance | amyloid nucleation score
GAPGLMFVFLKKSVFLYSYL | inactive
DFVRSNNCYWCFAAFSPCFR | inactive
KYNHIYVYKSIRCVQGVLDG | inactive
MNVFWCACYRCSDRVSMKVW | 2 ± 0.058
SSNLDTTVCFPVCSAPELEG | inactive
FFASSIYQRALYTVILSSPT | inactive
NKVSWIFNDSKGQGSV | -0.291 ± 1.3
HGKVGKRFRLGQKAYVSGLW | inactive
NSNNSGTVKFRNIRLYSTSL | inactive
LAGSCMGLMCWVVDARAVGR | 0.06 ± 0.64
AAPCFVKLLHGLVVRVQVVM | inactive
TGIWSGYYKLFLSVLRGRRV | inactive
EFMAGNDSRIQCSRIRGCYG | inactive
WGVNYMLWDCIYEATLSLIP | inactive
LYRVVYFDALKNCGYVVSFW | inactive
FGKRQSAMLLDLNSGWSNLD | -0.42 ± 1.3
YSILYKSYYLRMHWVVASRL | inactive
YLTCDKTNVNGFMI | inactive
IKWVCTEVRSGCLSVDCVLV | inactive
SCGHFIGCWMGTQVRIYGKQ | inactive
NLASCFVSIVEGSHFVYC | 1.9 ± 0.1
MSTMFVPLSCFSENKRQTLS | inactive
YCVWFPSVCFIRRYVSIRLI | inactive

Substance | amyloid nucleation score
VYLYIWQKVSGHHYGFQMDW | inactive
QIGFCS | inactive
RECSNSVVLFLDVTHRVVRT | inactive
LRGSRYFWDWAPSYYFVHLR | inactive
HSNVGCKFAIKYSLAFCGVK | inactive
RRKLRGALTVEMVFSPVYRR | inactive
DFKDCDICTTPNDKVESGKV | inactive
RLINKYWSPNPMLRKFR | 1.09 ± 0.11
WRRLRATISNGAWD | inactive
MHAVDNNLRVNIIMSVLLYK | inactive
FFPCTGVRHSRDIAVV | inactive
RAYSLLVRQIVRCNESG | inactive
IWICYWSCRIKAYRLSNFFD | inactive
NCHSFVYYSMLGVSLSISGN | 2.29 ± 0.059
LVVDYLEFCTFLVDVENIWT | inactive
VPGSSNVTCLYEGLSSYNTR | inactive
RFMWSLGSTLRWKAWADVTG | inactive
MSPPCFNRMSYIMLPWFVML | inactive
NNNPVGILQNSCVGVIFNHS | -0.517 ± 1
DSSKWHAMYMLTKMKMTGWL | inactive
NTPVGLINYSGDTWLMAIRW | inactive
YSTCDLGLHIGAQQERYGLG | 0.253 ± 0.37
SGFSYRFRDSMGLDKYRCAN | inactive

Substance | amyloid nucleation score
AVIFFYRVISFLRWSFTLPV | inactive
KGKITCM | inactive
MLFVEFSMGSHCRET | 1.53 ± 0.1
ILCVFVYRSRAESYEL | 0.446 ± 0.23
EDHCSLFKLSAFTAYTGLAL | inactive
NGSIILICLVYVGLRCLWFL | inactive
SLFVLCFH | 0.717 ± 0.13
IAAIGLELYWFFIVSIWGY | inactive
RKYCYGMSLFTDMTMLVRRK | inactive
YFGVTLLMYERARWASFYRF | inactive
SSRVNKGEVARLVVSIPIIH | inactive
SPNWGLLGICLSTSRVQAL | 1.86 ± 0.082
CFNSR | inactive
SGHVHNSMKPGRSRTCTMLR | inactive
RSTFRRLLRCFGFWRRWSCI | inactive
PNHYWFVAQFWLFSLTACHR | 0.02 ± 0.77
RSTQRTLPQ | inactive
ANCSWWSWESMNCCYIGWIF | 1.54 ± 0.071
